Source: US6066472

Molecular target: myelin basic protein, 32P-labeled on tyrosine residues

dephosphorylation (radioactivity released as inorganic phosphate, percentage of total input): > 30%
Substance: PTPL1 protein tyrosine phosphatase (from UniProt Q12923) (enzyme)
